# From patent US20160047821
# Residue numbers refer to the chain shown, from its start.
# B1: IκB kinase (IKK) complex (endogenous, WT MEFs) (protein)
# chain 1: MERPPGLRPGAGGPWEMRERLGTGGFGNVSLYQHRELDLKIAIKSCRLELSSKNRERWCHEIQIMKKLDHANVVKACDVPEELNFLINDVPLLAMEYCSGGDLRKLLNKPENCCGLKESQILSLLSDIGSGIRYLHENKIIHRDLKPENIVLQDVGGKTIHKIIDLGYAKDVDQGSLCTSFVGTLQYLAPELFENKPYTATVDYWSFGTMVFECIAGYRPFLHHLQPFTWHEKIKKKDPKCIFACEEMTGEVRFSSHLPQPNSLCSLIVEPMESWLQLMLNWDPQQRGGPIDLTLKQPRCFALMDHILNLKIVHILNMTSAKIISFLLPCDESLHSLQSRIERETGINTGSQELLSETGISLDPRKPASQCVLDGVRGCDSYMVYLFDKSKTVYEGPFASRSLSDCVNYIVQDSKIQLPIIQLRKVWAEAVHYVSGLKEDYSRLFQGQRAAMLSLLRYNANLTKMKNTLISASQQLKAKLEFFRKSIQLDLERYSEQMTYGISSEKMLKAWKEMEEKAIHYSEVGVIGYLEDQIMSLHTEIMELQKSPYGRRQGDLMESLEQRAIDLYKQLKHRPPDHLYSDSTEMVKIIVHTVQSQDRVLKELFGHLSKLLGCKQKIIDLLPKVEVALSNIKEADNTVMFMQGKRQKEIWHLLKIACTQSSARSLVGSSLEGTVTPPVSAWLPPTLADREHPLTCVVTPQDGETLAQMIEENLNCLGHLSTIIREANEDQSSSLMSLDWSWLAE
# chain 2: MSWSPSLPTQTCGAWEMKERLGTGGFGNVIRWHNQATGEQIAIKQCRQELSPKNRNRWCLEIQIMRRLNHPNVVAARDVPEGMQNLAPNDLPLLAMEYCQGGDLRRYLNQFENCCGLREGAVLTLLSDIASALRYLHENRIIHRDLKPENIVLQQGEKRLIHKIIDLGYAKELDQGSLCTSFVGTLQYLAPELLEQQKYTVTVDYWSFGTLAFECITGFRPFLPNWQPVQWHSKVRQKSEVDIVVSEDLNGAVKFSSSLPFPNNLNSVLAERLEKWLQLMLMWHPRQRGTDPQYGPNGCFRALDDILNLKLVHVLNMVTGTVHTYPVTEDESLQSLKTRIQENTGILETDQELLQKAGLVLLPDKPATQCISDSKTNEGLTLDMDLVFLLDNSKINYETQITPRPPPESVSCILQEPKRNLSFFQLRKVWGQVWHSIQTLKEDCNRLQQGQRAAMMSLLRNNSCLSKMKNAMASTAQQLKAKLDFFKTSIQIDLEKYKEQTEFGITSDKLLLAWREMEQAVEQCGRENDVKHLVERMMALQTDIVDLQRSPMGRKQGGTLDDLEEQARELYRKLREKPRDQRTEGDSQEMVRLLLQAIQSFEKKVRVIYTQLSKTVVCKQKALELLPKVEEVVSLMNEDERTVVRLQEKRQKELWNLLKIACSKVRGPVSGSPDSMNVSRLSHPGQLMSQPSSACDSLPESDKKSEELVAEAHALCSRLESALQDTVKEQDRSFTTLDWSWLQMEDEERCSLEQACD
# chain 3: MNKHPWKNQLSEMVQPSGGPAEDQDMLGEESSLGKPAMLHLPSEQGTPETLQRCLEENQELRDAIRQSNQMLRERCEELLHFQVSQREEKEFLMCKFQEARKLVERLSLEKLDLRSQREQALKELEQLKKCQQQMAEDKASVKAQVTSLLGELQESQSRLEAATKDRQALEGRIRAVSEQVRQLESEREVLQQQHSVQVDQLRMQNQSVEAALRMERQAASEEKRKLAQLQAAYHQLFQDYDSHIKSSKGMQLEDLRQQLQQAEEALVAKQELIDKLKEEAEQHKIVMETVPVLKAQADIYKADFQAERHAREKLVEKKEYLQEQLEQLQREFNKLKVGCHESARIEDMRKRHVETPQPPLLPAPAHHSFHLALSNQRRSPPEEPPDFCCPKCQYQAPDMDTLQIHVMECIE
# Experiments:
# [1] = molecular target: T1, GST-RelB deletion mutant Δ3 (amino acids 372-448)
# T1 chain: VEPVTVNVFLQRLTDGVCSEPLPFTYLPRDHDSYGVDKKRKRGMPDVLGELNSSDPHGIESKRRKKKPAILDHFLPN
# [2] = molecular target: T2, GST-RelB Δ4 point mutant S451A
# T2 chain: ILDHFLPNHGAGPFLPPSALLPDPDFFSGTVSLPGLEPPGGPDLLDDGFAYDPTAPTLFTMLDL
# [3] = molecular target: T3, GST-RelB deletion mutant Δ1 (amino acids 274-321)
# T3 chain: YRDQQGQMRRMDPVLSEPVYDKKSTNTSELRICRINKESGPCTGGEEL
# [4] = molecular target: T4, GST-RelB Δ4 point mutant S472A
# T4 chain: T2 chain with A11S, S32A
# [5] = molecular target: T5, GST-RelB deletion mutant Δ4 (amino acids 441-504)
# T5 chain: T2 chain with A11S
# [6] = molecular target: T6, GST-RelB deletion mutant Δ2 (amino acids 316-377)
# T6 chain: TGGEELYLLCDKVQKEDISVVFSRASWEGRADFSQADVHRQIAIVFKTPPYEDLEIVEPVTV
# [7] = molecular target: T7, GST-RelB Δ4 point mutant S458A
# T7 chain: T2 chain with A11S, S18A
# [8] = molecular target: T8, GST-RelB Δ4 point mutant S468A
# T8 chain: T2 chain with A11S, S28A
# [9] = molecular target: T9, GST-RelB deletion mutant Δ5 (amino acids 499-580)
# T9 chain: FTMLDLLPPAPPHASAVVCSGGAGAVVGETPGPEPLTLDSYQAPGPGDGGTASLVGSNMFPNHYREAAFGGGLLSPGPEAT
protein,measurement,setting,value
B1,"IKKγ kinase assays (phosphorylation of the GST-RelB substrate, 32P autoradiography)",[1],Only mutant Δ4 was efficiently phosphorylated by IKKγ
same,in vitro kinase assays (phosphorylation of GST-RelB Δ4 point mutants),[2],only a point mutation at serine 472 abolished phosphorylation of the Δ4 RelB deletion mutant
same,"IKKγ kinase assays (phosphorylation of the GST-RelB substrate, 32P autoradiography)",[3],Only mutant Δ4 was efficiently phosphorylated by IKKγ
same,in vitro kinase assays (phosphorylation of GST-RelB Δ4 point mutants),[4],only a point mutation at serine 472 abolished phosphorylation of the Δ4 RelB deletion mutant
same,"IKKγ kinase assays (phosphorylation of the GST-RelB substrate, 32P autoradiography)",[5],Only mutant Δ4 was efficiently phosphorylated by IKKγ
same,"IKKγ kinase assays (phosphorylation of the GST-RelB substrate, 32P autoradiography)",[6],Only mutant Δ4 was efficiently phosphorylated by IKKγ
same,in vitro kinase assays (phosphorylation of GST-RelB Δ4 point mutants),[7],only a point mutation at serine 472 abolished phosphorylation of the Δ4 RelB deletion mutant
same,in vitro kinase assays (phosphorylation of GST-RelB Δ4 point mutants),[8],only a point mutation at serine 472 abolished phosphorylation of the Δ4 RelB deletion mutant
same,"IKKγ kinase assays (phosphorylation of the GST-RelB substrate, 32P autoradiography)",[9],Only mutant Δ4 was efficiently phosphorylated by IKKγ
